Target: T1, AdpAlin (Streptomyces lincolnensis NRRL 2936) (UniProt A0A1B1M9Y0)
T1 sequence: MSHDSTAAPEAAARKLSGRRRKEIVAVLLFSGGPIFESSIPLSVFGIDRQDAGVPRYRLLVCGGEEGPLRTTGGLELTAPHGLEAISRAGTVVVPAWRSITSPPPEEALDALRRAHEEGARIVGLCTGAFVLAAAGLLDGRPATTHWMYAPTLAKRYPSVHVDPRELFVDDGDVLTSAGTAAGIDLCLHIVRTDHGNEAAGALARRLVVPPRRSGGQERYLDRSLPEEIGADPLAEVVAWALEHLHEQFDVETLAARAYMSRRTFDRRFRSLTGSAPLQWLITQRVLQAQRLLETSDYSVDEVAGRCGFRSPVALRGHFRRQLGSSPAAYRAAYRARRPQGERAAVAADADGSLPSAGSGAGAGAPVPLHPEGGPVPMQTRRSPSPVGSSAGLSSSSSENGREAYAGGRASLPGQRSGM
Assay: EMSA
Details: EMSA: 20 mM Tris-HCl pH 7.5, 5% glycerol, 0.1% BSA; 2.5 nM 5'-biotin probe; AdpAlin 0-6.4 uM (12.8 uM for probe-neg); 200-fold unlabeled competitor; salt and …

Row | Sequence | binding
1 | AGCCAGTGACGATAAGCGACCACCTGGGTCTCGCCCTGACCGTAGATCTTCGACAGATCCGTGGCACGCGCCGCCACTGCGGTGGTCCGGCCGACGATGGGTGTGGTGGTCACGAGAGGGCACTCCTGGGAACGACGACTGGGGGAATACCTCCATCGTCGCCGCCGCGGAGCGCCGTGTAGTCAGCCGCTGTTCCCTTATCGTCACTGGCT (double strand) [bldAp-N] | no binding
2 | AGCCAGTGACGATAAGCGGGGACACACAGGGGTGGGCGGCACGGTGGGGGAAATACACCGGTCGGCTGACCGGTTTCCGCGCACGCGCCCGACTCTTTTCAGCCAACTTCCGACCACCGGGCATCCTTGTGTCCAACCACCCCCCAACCCCCGTTTGACCTGCACGGAAAGGGTCCCCACTTATCGTCACTGGCT (double strand) [adpAp-B-1] | no binding
3 | AGCCAGTGACGATAAGGGTTCCCGTGGTGCTCCTCTGGTACGGCACCTCGCTCGCCGGCGCCGCCGGCACCGCGCTCGGACTGGCCGCCGTCACCGCCGTCTGCCGTATCCTCCTGCGCCAGTCGGAGCGCGGTGCGGCACGGCTACTGGCCGAAGAACGGGCCCCCCATCGCGGCCACCGCCACCGGGCCGGAACGGGGACACACAGGGGTGGGCGCTTATCGTCACTGGCT (double strand) [adpAp-B-2] | binds
4 | AGCCAGTGACGATAAGGCGTTTACCTAGAACAAATCCGGGGCAAGCTCGCTCAGCTGTCGCCATGGGCGCCCTGACGCCACTGCGGCCCACGGATCGCCCCGTCAGCAAACTGGCCGAATGCCAACGGCATACGGCCAGTTCCTGACGCGGGCCACGGGGTTCACTCCGCGGACCACGCGTGCGGCGGCCGCCTCACTTATCCCGATGAGGCCACGCGTCGTCCGCCTCCGCGATCTCCTCCAGGGTTCCGTCCTTATCGTCACTGGCT (double strand) [lmbUp-C] | binds
5 | AGCCAGTGACGATAAGCGAGACAAGCAATCGGCTTCACGCCCTGTCAAGCGGCAGCAGACGGCTTCCCGTAATTCCTGGAAGTTATCCGGGAGTCGGCGCGAACGGCCCTCGATATCCGGTGCATTACCTGGGAATAGGGAATAGGGAACCGGTAATCCGCGGTCGGGGCAAGCGTCTGGGTGCGTGGACTTATCGTCACTGGCT (double strand) [mlmbAp-A] | no binding
6 | AGCCAGTGACGATAAGCGTGTCTGCATTCCACCATCCGGGCAGGCCATGGGCTCCGCATCGAGGTTCCCGAGCCTATCGGGACGCCTCCCCCCAACAGGGGTCGGGTGGCCCGATGTTGTCTTATTTTATTGAGTTCTGAGGGAGCCTTATCGTCACTGGCT (double strand) [bldAp-A] | binds
7 | AGCCAGTGACGATAAGGGCCACACGTCGTAGACATCTGCGATCTTGTCACCGTAGAGCTTCGCGAAATCATGGTCGGACATTGAATTCTCTTTCCTCACCAGGACGTTGGCCACTCGGCGAGCGGCCGCAGGGAGACGGTGGCATGGGACGCGAGGGACAGTCGACACGGCAGCCGGTACCGGCGGTGTTCTTCGACCGGGACGGCGCTTATCGTCACTGGCT (double strand) [lmbJp-A] | binds
8 | AGCCAGTGACGATAAGCTATAGGCTTCGCGGGCTTCGAACTCCGCAGCCGCCACGCCGACTTCGACGGTGCCGCCTACCGCCCGGACAGCCGCTACCACGTGTCCGTCTACGCCCGGGCGCACGGTGACTAGGGCGCGACGGCTCGCCGCCGCCGCGTTCCGGGCCTTATCGTCACTGGCT (double strand) [mlmbKp-B] | no binding
9 | AGCCAGTGACGATAAGGGCGTAGACGGACACGTGGTAGCGGCTGTCCGGGCGGTAGGCGGCACCGTCGAAGTCGGCGTGGCGGCTGCGGAGTTCGAAGCCCGCGAAGCGGGCCATCAGGTCCAGCTCCGTGGGGTGCTTATCGTCACTGGCT (double strand) [lmbKp-B] | binds
10 | AGCCAGTGACGATAAGTCGGACGAGGACGACGACAACCCCGCGGACGACCCGACAGGACTCGGCGAACGCCGCGTCTGCATCGGCACCGGCCCGCCCTCCGGATGCAGCGGAACCGGCGCACCGGCACCCGCCCCCGATCCGGCGGACGGCAAGGACCCGTCAGCGTCCTTATCGTCACTGGCT (double strand) [probe-neg] | no binding
11 | AGCCAGTGACGATAAGTCTACTGTGTCGCGTGATGCCGGAGTGACCAGTTCGTCATCCGGCAGATTGTCGACTTGGCAACTTGGCGTGAAGCATTCGATCACGAAGCGTTGCACTCGTGGGGCGTGCAGGGAAGTGCGCCTTGTCGCAGTGGCCAATCCACGTAGGGTGCGCTTATCGTCACTGGCT (double strand) [adpAp-A] | binds
12 | AGCCAGTGACGATAAGCGAGACAAGCAATCGGCTTCACGCCCTGTCAAGCGGCAGCAGACGGCTTCCCGTAATTCCTGGAAGTTATCCGGGAGTCGGCGCGAACGTGCCGCCACGGCCCTCGATATCCGGTGCATTACCTGGGAATAGGGAATAGGGAACCGGTAATCCGCGGTCGGGGCAAGCGTCTGGGTGCGTGGACTTATCGTCACTGGCT (double strand) [lmbAp-A] | binds
13 | AGCCAGTGACGATAAGTGATCCGTACTTGATACATTGGCCGTTACATGTATCGGAGTTCCGAGGGGGGGCAATGATGCTGGTTCCGCCAAGCCATTCATGAGCTGCTCGCCTGCGCCGCCCTTCGTGGCGGTGGCGCGACATCGATGAGCGTGGTGGGCGCCGAACAACGGGGGTGAATCGCTGCTTCTTATCGTCACTGGCT (double strand) [lmbUp-A] | binds
14 | AGCCAGTGACGATAAGGGCCACACGTCGTAGACATCTGCGATCTTGTCACCGTAGAGCTTCGCGAAATCATGGTCGGACATTGAATTCTCTTTCCTCACCAGGCTCGGCGAGCGGCCGCAGGGAGACGGTGGCATGGGACGCGAGGGACAGTCGACACGGCAGCCGGTACCGGCGGTGTTCTTCGACCGGGACGGCGCTTATCGTCACTGGCT (double strand) [mlmbJp-A] | no binding

Reference: PMC6819324
